Source: patent publication US9951373B2, “Oplophorus-derived luciferases, novel coelenterazine substrates, and methods of use” (Promega Corporation, priority 2010, dated 2018)

Key:
[1] = tested on: cAMP response element (CRE); assay: Transcriptional reporter, forward transfection, CRE in HEK293 cells; assay type: cell-based, human; conditions: 3 h; for baseline: 10 nM FSK
Procedure: HEK293 cells were plated at 15,000 cells/well in six 96-well tissue culture plates. Cells were grown in 100 μL of DMEM+10% FBS+1× non-essential amino acids (NEAA) and incubated overnight at 37° C. The cells were transiently transfected with either 10 ng or 100 ng plasmid DNA/well of pGL4.29 9B8 opt, pGL4.29 9B8 opt-P, or pGL4.29. Plasmid DNA was mixed with 850 μL of OPTI-MEMO (Invitrogen) and 32.4 μL of FUGENE® HD transfection reagent (Promega Corp.) and incubated at room temperature for 10 min. Eight μL of the transfection/reporter DNA mixture was added to the appropriate wells (2 constructs/plate). Cells were incubated for 4 hrs at 37° C. The medium was replaced with OPTI-MEM®+0.5% dialyzed FBS+1×NEAA+1× sodium pyruvate+1× Penn-Strep and incubated overnight at 37° C.
A lytic reagent containing 100 mM MES pH 6.1, 1 mM CDTA, 150 mM KCl, 35 mM thiourea, 2 mM DTT, 0.25% TERGITOLO NP-9 (v/v), 0.025% MAZUO DF 204, and 20 μM PBI-3939 was added to the cells containing pGL4.29 9B8 opt or pGL4.29 9B8 opt-P and allowed to incubated for 10 min at room temperature (100 μL lytic reagent added to 100 μL cells). ONE-GLO™ assay reagent (Promega Corp.) was added to cells containing pGL4.29 and used according to the manufacturer's protocol (100 μL reagent added to 100 μL cells). Luminescence was measured on a GLOMAX® Luminometer.

[2] = tested on: antioxidant response element (ARE); assay: Transcriptional reporter, reverse transfection, ARE in HEK293 cells; assay type: cell-based, human; conditions: 100 ng DNA, 24 h
Procedure: HEK293 cells were trypsinized (T75 flask, 3 mL trypsin) and resuspended in […] (approximately 8.9×10^6 total cells) in medium containing DMEM+10% FBS+1×NEAA. Each transcriptional reporter was prepared for transfection by mixing 1.2 mL OPTI-MEM®, 12 μL transcription reporter DNA (100 ng) and 36 μL FUGENE® HD transfection reagent together and incubated at room temperature for 35 min. Following incubation, 624 μL of the transfection/reporter DNA mixture was added to 12 mL of cell suspension and mixed by inversion. After mixing, 100 μL of the cell/DNA mixture was added to wells of a 96-well plate (2 constructs/plate). The cells were incubated at 37° C. for 22 hrs. Tert-butylhydroquinone (a Nrf2 stabilizer; tBHQ; 1 μM (“baseline”) or 20 μM) or sulphoraphane, (an organosulfer antioxidant known to activate Nrf2; 1 μM (“baseline”) or 20 μM) in OPTI-MEM® was added to each well and incubated at 37° C. for 24 hrs. Cells were lysed with 100 μL lytic reagent as described above for the forward transfection. Luminescence was measured on a GLOMAX® Luminometer.

CRE [3] = assay: Transcriptional reporter, bulk transfection, CRE in HEK293 cells; assay type: cell-based, human; conditions: HEK293, 10 nM FSK, 4 h
Procedure: (§1) The transcriptional reporter containing HRE and 9B8 opt-P was used in the bulk transfection of HeLa cells
(§2) HEK293, NIH3T3, or HeLa cells were plated to a single well of a 6-well tissue culture plate the day before transfection at a density of 4.5×10^5 cells/well in 3 mL complete medium (DMEM+10% FBS+1×NEAA+1× sodium pyruvate) for HEK293 cells, 3×10^5 cells/well in 3 mL complete medium (DMEM+10% fetal calf serum (FCS)+1×NEAA+1× sodium pyruvate) for NIH3T3 cells, or 9.9×10^5 cells/well in 3 mL complete medium (DMEM+10% FBS+1×NEAA) for HeLa cells. Cells were grown overnight at 37° C.
(§3) 3,300 ng of reporter plasmid DNA in 155 μL OPTI-MEM® was mixed with 9.9 μL FUGENE® HD transfection reagent, vortexed briefly, and incubated at room temperature for 10 min. The CRE transcriptional reporters were used to transfect HEK293 and NIH3T3 cells. The HRE transcriptional reporters were used to transfect HeLa cells. The reporter mixture was added to cells and mixed by gentle rocking followed by incubation at 37° C. for 6 hrs (HEK293 and NIH3T3) or 3 hrs (HeLa). […]
(§4) FSK (CRE stimulator) or 17-AAG (HRE stimulator; 17-Allylamino-demethoxy geldanamycin) in OPTI-MEM® was added to the cells (10 nM or 10 μM final concentration for FSK; 1 nM or 1 μM final concentration for 17-AAG) and incubated at 37° C. for 4 hrs (FSK) or 6 hrs (17-AAG). […] Luminescence was measured on a GLOMAX® Luminometer.

CRE [4] = assay: Transcriptional reporter, bulk transfection, CRE in NIH3T3 cells; assay type: cell-based; conditions: NIH3T3, 10 nM FSK, 4 h
Procedure: as §1, §2, §3, §4

[5] = tested on: heat shock response element (HRE); assay: Transcriptional reporter, bulk transfection, HRE in HeLa cells; assay type: cell-based; conditions: 6 h
Procedure: as §1, §2, §3, §4

B1: 9B8 opt-P: 9B8 opt further comprising the PEST protein degradation sequence (SEQ ID NO: 65) (protein)
chain: MVFTLEDFVGDWRQTAGYNLDQVLEQGGLSSLFQKLGVSVTPIQKIVLSGENGLKIDIHVIIPYEGLSGYQMGQIEKIFKVVYPVDDHHFKVILHYGTLVIDGVTPNMIDYFGRPYEGIAVFDGKKITVTGTLWNGNKIIDERLINPDGSLLFRVTINGVTGWRLCERILANSHGFPPEVEEQAAGTLPMSCAQESGMDRHPAACASARINV
modifications: PEST degradation sequence
baseline ([1]; 10 ng DNA): 11179 RLU
RLU (10 µM FSK) ([1]; 10 ng DNA): 1,353,459 RLU
Response ([1]; 10 ng DNA): 121
baseline ([1]; 100 ng DNA): 122,071 RLU
RLU (10 µM FSK) ([1]; 100 ng DNA): 20,544,753 RLU
Response ([1]; 100 ng DNA): 168
RLU (20 μM sulphoraphane) [2]: 3,940,000 RLU
RLU (20 μM tBHQ) [2]: 8,460,000 RLU
baseline ([2]; 1 μM sulphoraphane): 258,406 RLU
baseline ([2]; 1 μM tBHQ): 317,238 RLU
baseline (CRE [3]): 3,960,000 RLU
baseline (CRE [4]): 410,461 RLU
baseline [5]: 278,118 RLU
